Source: PMC4317567

target: fTHP-15 fluorogenic triple-helical peptide substrate

Substance | Km of triple-helical peptidase activity (hydrolysis of fTHP-15), 27 °C, pH 7.5
MT1-MMP catalytic domain, wild type (enzyme) | 8.9 µM
MT1-MMP ectodomain F360G (enzyme) | 1.7 µM
MT1-MMP ectodomain N347A (enzyme) | 790 nM
MT1-MMP ectodomain R330A (enzyme) | 980 nM
MT1-MMP ectodomain R345A (enzyme) | 1.7 µM

The remaining lines, values ahead:

Km of triple-helical peptidase activity (hydrolysis of fTHP-15), 27 °C, pH 7.5 | Substance
1.6 µM | MT1-MMP ectodomain E392A (enzyme)
4.3 µM | MT1-MMP ectodomain R343A (enzyme)
820 nM | MT1-MMP soluble ectodomain, wild type (C127S-substituted) (enzyme)
